Measurements as given in patent publication US10688197B2, “Non-alcoholic fatty liver regulator 14-3-3 protein” (Korea University Research and Business Foundation, priority 2015, dated 2020).

Legend:
PPARγ2 = biological target: T1, PPARγ2 (Homo sapiens, UniProt P37231); test: aP2 promoter luciferase reporter, transcriptional activity of PPARγ2 in HEK-293T cells; type: cell-based; conditions: for transcriptional activity of PPARγ2: overexpressed according to concentration, concentration-dependent manner, FIG. 1B/1C; for transcriptional activity of PPARγ2 (activity of the aP2 promoter): overexpression of 14-3-3 isoform proteins (0.5 μg), HEK-293T, 10 μM pioglitazone 24 hours, FIG. 1A
T1 construct: endogenous in cells; host or cells: HEK-293T
T1 sequence (P37231 1-505): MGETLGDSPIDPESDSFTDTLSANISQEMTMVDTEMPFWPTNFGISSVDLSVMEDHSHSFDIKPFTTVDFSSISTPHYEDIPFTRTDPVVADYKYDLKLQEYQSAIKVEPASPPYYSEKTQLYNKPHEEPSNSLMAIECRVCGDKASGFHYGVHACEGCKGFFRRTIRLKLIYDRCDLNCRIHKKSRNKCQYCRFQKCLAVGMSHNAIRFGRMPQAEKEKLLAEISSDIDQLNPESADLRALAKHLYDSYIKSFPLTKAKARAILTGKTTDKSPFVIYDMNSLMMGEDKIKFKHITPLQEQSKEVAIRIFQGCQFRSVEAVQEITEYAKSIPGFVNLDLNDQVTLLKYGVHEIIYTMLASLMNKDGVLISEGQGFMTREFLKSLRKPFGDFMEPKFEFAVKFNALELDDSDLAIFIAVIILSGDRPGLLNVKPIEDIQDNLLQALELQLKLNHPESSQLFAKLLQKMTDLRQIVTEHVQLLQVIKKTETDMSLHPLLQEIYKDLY
Description: The transcriptional activity of PPARγ2 plays a vital role in expression of liver diseases-associated proteins. Thus, the transcriptional activity of PPARγ2 was measured using an aP2 promoter regulated by PPARγ2, and the role of 7 types of 14-3-3 proteins was investigated.
For this, HEK-293T cells were seeded in a 12-well plate at a density of 1×10^5 cells per each well, and then transfected with an aP2 promoter construct (0.5 μg) and 14-3-3 isoform proteins (α, β, γ, δ, ε, ζ, η, θ) (0.5 μg) or si-14-3-3β and si-14-3-3γ siRNA (5 nM and 10 nM, Santa Cruz) using an E-fection plus reagent (Lugen). A ratio of DNA to the E-fection plus reagent was 1:2, and this method was performed according to a manufacturer's manual. After transfection, the corresponding cells were treated with 10 μM of pioglitazone (Pio, Santa Cruz) for 24 hours, washed with ice-cold PBS, and lysed using 80 μl/well of a reporter lysis buffer (Promega, Madison, Wis.), and the lysed cells were centrifuged at 10,000×g and 4° C. for 10 minutes to collect a supernatant, and luciferase activity was measured. As an instrument, Luminometer 20/20n (Turner Biosystems, Sunnyvale, Calif.) was used. For normalization, the cells were cotransfected with pSV40-β-galactosidase. For the collected supernatant, β-galactosidase activity was measured and the luciferase activity was revised, and the obtained values were plotted. At this time, a β-galactosidase enzyme analysis system (Promega, Madison, Wis.) was used, and analysis was performed using a DU530 spectrophotometer (Beckman Instruments, Palo Alto, Calif.).

[1] = biological target: T2, binding between PPARγ2 and 14-3-3γ (Homo sapiens, UniProt P37231); test: GST-pull down assay, binding between PPARγ2 and 14-3-3γ (HEK-293T)
T2 construct: expressed in transfected cells; host or cells: HEK-293T
T2 sequence (P37231 1-505): T1 sequence (P37231 1-505)
Description: After transfection, […], washed with ice-cold PBS, and lysed using 500 μl/well of a lysis buffer (150 mM NaCl, 1 mM EDTA, 1% Nonidet P-40, 5% glycerol, 25 mM tris-HCl, pH 7.5, protease inhibitor added), and the lysed cells were centrifuged at 10,000×g and 4° C. for 10 minutes to extract proteins. Thereafter, 1,000 μg of the proteins was reacted with 20 μl of glutathione Sepharose 4B beads (GE Healthcare, Buckinghamshire, UK) for 6 hours, and then washing of the beads with 1 ml of ice-cold PBS was repeated 5 times, and the beads were boiled at 100° C. for 10 minutes, followed by 10% SDS-PAGE gel separation and western blotting. A ratio of GST antibodies (Santa Cruz) to Myc antibodies (self-production) was 1:3000. The detection of each protein was performed using West Pico ECL (Thermo scientific, Rockford, Ill.) and identified in a darkroom.
After transfection, […], washed with ice-cold PBS, and lysed using 500 μl/well of a lysis buffer (150 mM NaCl, 1 mM EDTA, 1% Nonidet P-40, 5% glycerol, 25 mM tris-HCl, pH 7.5, protease inhibitor added), and the lysed cells were centrifuged at 10,000×g and 4° C. for 10 minutes to extract proteins. […]

Row | Compound | transcriptional activity of PPARγ2 (PPARγ2) | transcriptional activity of PPARγ2 (activity of the aP2 promoter) (PPARγ2) | binding between PPARγ2 and 14-3-3γ ([1]; 200 μM oleic acid 72 hours, FIG. 8B) | binding between 14-3-3γ and PPARγ2 ([1]; expression amount of 14-3-3β increased (HA-14-3-3β DNA 2 and 4 μg), FIG. 5B)
1 | 14-3-3γ: 14-3-3 isoform protein overexpressed by DNA transfection; decreases the transcriptional activity of PPARγ2; proposed active ingredient | reduced | decreased | – | –
2 | CCCCCCCC/C=C\CCCCCCCC(=O)O [oleic acid] | – | – | reduced | –
3 | 14-3-3β: 14-3-3 isoform protein overexpressed by DNA transfection; increases the transcriptional activity of PPARγ2 by binding to PPARγ2 | increased | increased | – | reduced
